Here are results for six molecules from paper PMC3369926, “TRAM Is Involved in IL-18 Signaling and Functions as a Sorting Adaptor for MyD88” (PLoS ONE, 2012).

T1: GST-IL-18Rβ-TIR (amino acid residues 407-599) (UniProt O95256 407-599)
T1 construct: IL-18Rβ (formerly IL-1AcPL), cytosolic TIR domain, residues 407-599; also called IL-18Rβ TIR domain; IL-1AcPL TIR; source: purified as GST fusion protein (pGEX vector), by methods previously described
T1 sequence (looked up): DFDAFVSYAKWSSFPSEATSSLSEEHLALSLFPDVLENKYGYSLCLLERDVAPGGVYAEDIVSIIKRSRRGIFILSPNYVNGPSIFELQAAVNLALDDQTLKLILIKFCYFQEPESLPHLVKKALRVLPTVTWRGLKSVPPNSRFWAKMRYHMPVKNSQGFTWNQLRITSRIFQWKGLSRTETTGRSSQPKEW

B1: TRAM-TIR (amino acid residues 66-235) (domain or fragment, human, UniProt Q86XR7 66-235, looked up)
chain: EEMFEEEAEEEVFLKFVILHAEDDTDEALRVQNLLQDDFGIKPGIIFAEMPCGRQHLQNLDDAVNGSAWTILLLTENFLRDTWCNFQFYTSLMNSVNRQHKYNSVIPMRPLNNPLPRERTPFALQTINALEEESRGFPTQVERIFQESVYKTQQTIWKETRNMVQRQFIA
notes: TRAM (TICAM-2), human, TIR domain, residues 66-235; also called TIR domain of human TRAM; TRAM TIR domain; source: purified; subcloned into a pGEX vector, obtained by a similar procedure as previously described for the MyD88-TIR
B2: GST-MyD88-TIR (wild type, amino acid residues 148-296) (domain or fragment, UniProt Q99836 148-296, looked up)
chain: TTLDDPLGHMPERFDAFICYCPSDIQFVQEMIRQLEQTNYRLKLCVSDRDVLPGTCVWSIASELIEKRCRRMVVVVSDDYLQSKECDFQTKFALSLSPGAHQKRLIPIKYKAMKKEFPSILRFITVCDYTNPCTKSWFWTRLAKALSLP
notes: MyD88, TIR domain, amino acid residues 148-296; also called wild-type MyD88-TIR; MyD88 TIR domain; source: purified as GST fusion protein (pGEX vector), by methods previously described
B3: GST-MyD88-TIR R288A (148-296) (domain or fragment, UniProt Q99836 148-296, looked up)
chain: TTLDDPLGHMPERFDAFICYCPSDIQFVQEMIRQLEQTNYRLKLCVSDRDVLPGTCVWSIASELIEKRCRRMVVVVSDDYLQSKECDFQTKFALSLSPGAHQKRLIPIKYKAMKKEFPSILRFITVCDYTNPCTKSWFWTALAKALSLP
notes: MyD88, TIR domain, residues 148-296, with R288A; also called Site III mutant R288A; source: purified as GST fusion protein (pGEX vector), by methods previously described
B4: GST-MyD88-TIR R196A (148-296) (domain or fragment, UniProt Q99836 148-296, looked up)
chain: TTLDDPLGHMPERFDAFICYCPSDIQFVQEMIRQLEQTNYRLKLCVSDADVLPGTCVWSIASELIEKRCRRMVVVVSDDYLQSKECDFQTKFALSLSPGAHQKRLIPIKYKAMKKEFPSILRFITVCDYTNPCTKSWFWTRLAKALSLP
notes: MyD88, TIR domain, residues 148-296, with R196A; also called Site II mutant R196A; source: purified as GST fusion protein (pGEX vector), by methods previously described
B5: GST-MyD88-TIR R217A (148-296) (domain or fragment, UniProt Q99836 148-296, looked up)
chain: TTLDDPLGHMPERFDAFICYCPSDIQFVQEMIRQLEQTNYRLKLCVSDRDVLPGTCVWSIASELIEKRCARMVVVVSDDYLQSKECDFQTKFALSLSPGAHQKRLIPIKYKAMKKEFPSILRFITVCDYTNPCTKSWFWTRLAKALSLP
notes: MyD88, TIR domain, residues 148-296, with R217A; also called Site I mutant R217A; source: purified as GST fusion protein (pGEX vector), by methods previously described
B6: GST-IL-18Rα-TIR (amino acid residues 374-541) (domain or fragment, UniProt Q13478 374-541, looked up)
chain: TYDAFVSYLKECRPENGEEHTFAVEILPRVLEKHFGYKLCIFERDVVPGGAVVDEIHSLIEKSRRLIIVLSKSYMSNEVRYELESGLHEALVERKIKIILIEFTPVTDFTFLPQSLKLLKSHRVLKWKADKSLSYNSRFWKNLLYLMPAKTVKPGRDEPEVLPVLSES
notes: IL-18Rα (formerly IL-1Rrp), cytosolic TIR domain, residues 374-541; also called IL-18Rα TIR domain; IL-1Rrp TIR; source: purified as GST fusion protein (pGEX vector), by methods previously described

In the first assay the target is T1, GST-IL-18Rβ-TIR (amino acid residues …). The assay is described as follows: pull-down; GST fusion proteins held on Glutathione Sepharose 4B, three hours at 4°C; four washes with 20 mM potassium phosphate (pH 6.0), 100 mM KCl, 0.1 mM EDTA, 10 mM DTT, 0.5% Triton X100; SDS-PAGE with Coomassie staining; in triplicate. The following applies: both partners purified.
On to B1, for which the binding result is recorded as “binds”.

In the next assay the target is B1. Described as above. The note with it: both partners purified.
For the molecule B2, the binding result was “binds”. For the molecule B3, the binding result is reported as “binds”.

For the molecule B4, the binding result was “binds”. Still for that read-out and setting: to B5 belongs “binds”; to B6, “binds”.
